According to US20210246166A1 (Bayer, published 2021):
Bridge positions count the residues as written; N and C are the ends. Square brackets hold non-standard residues; d marks the D form. Ends that are not written are not given here. * marks the point of attachment. Pro(trans-4-F) = O=C(O)[C@@H]1C[C@@H](F)CN1; Oic = O=C(O)[C@@H]1C[C@@H]2CCCC[C@@H]2N1; Cyclopropylacetic acid = O=C(CC1CC1)*; Hyp = O=C(O)[C@@H]1C[C@@H](O)CN1; NMeI = CC[C@H](C)[C@H](NC)C(=O)O; aIle = CC[C@@H](C)[C@H](N)C(=O)O; tBuAla = CC(C)(C)C[C@H](N)C(=O)O; aThr = C[C@H](O)[C@H](N)C(=O)O; Chg = N[C@H](C(=O)O)C1CCCCC1; αMeP = C[C@@]1(C(=O)O)CCCN1; NMeC = CN[C@@H](CS)C(=O)O; Orn = NCCC[C@H](N)C(=O)O; Abu = CC[C@H](N)C(=O)O; Aib = CC(C)(N)C(=O)O; Sar = CNCC(=O)O

T1: recombinant rat MASP1 active protease (amino acids 302-704, C-terminal His Tag) (rat, UniProt Q8CHN8 302-704)
T1 sequence: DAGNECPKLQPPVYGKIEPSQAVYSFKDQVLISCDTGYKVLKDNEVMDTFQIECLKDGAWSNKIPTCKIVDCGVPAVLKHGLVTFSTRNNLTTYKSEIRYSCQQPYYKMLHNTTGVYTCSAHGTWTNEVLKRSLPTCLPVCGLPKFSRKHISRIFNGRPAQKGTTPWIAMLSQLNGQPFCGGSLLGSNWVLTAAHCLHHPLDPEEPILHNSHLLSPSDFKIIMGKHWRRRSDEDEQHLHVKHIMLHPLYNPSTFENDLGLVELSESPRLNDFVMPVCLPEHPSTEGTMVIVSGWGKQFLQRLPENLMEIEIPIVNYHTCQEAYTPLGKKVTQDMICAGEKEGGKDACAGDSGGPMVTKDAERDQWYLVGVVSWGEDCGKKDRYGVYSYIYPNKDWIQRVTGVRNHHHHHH


Biological target: T1, recombinant rat MASP1 active protease …
Assay: cell-based or functional assay

Binder | rat MASP1 IC50
[Sar]ICSRSLPPICI[Pro(trans-4-F)]D-OH (disulfide 3-11; N-terminus assumed; SMILES CC[C@H](C)[C@H](NC(=O)CNC)C(=O)N[C@H]1CSSC[C@@H](C(=O)N[C@H](C(=O)N2C[C@H](F)C[C@H]2C(=O)N[C@@H](CC(=O)O)C(=O)O)[C@@H](C)CC)NC(=O)[C@H]([C@@H](C)CC)NC(=O)[C@@H]2CCCN2C(=O)[C@@H]2CCCN2C(=O)[C@H](CC(C)C)NC(=O)[C@H](CO)NC(=O)[C@H](CCCNC(=N)N)NC(=O)[C@H](CO)NC1=O) [Example 287: ((N-Me)G)-IC+SRSLPPIC+I-((trans-4-Fluoro)P)-D-OH] | 250 nM
AICSR[aThr]LPPICIPD-NH2 (disulfide 3-11; N-terminus assumed; SMILES CC[C@H](C)[C@H](NC(=O)[C@H](C)N)C(=O)N[C@H]1CSSC[C@@H](C(=O)N[C@H](C(=O)N2CCC[C@H]2C(=O)N[C@@H](CC(=O)O)C(N)=O)[C@@H](C)CC)NC(=O)[C@H]([C@@H](C)CC)NC(=O)[C@@H]2CCCN2C(=O)[C@@H]2CCCN2C(=O)[C@H](CC(C)C)NC(=O)[C@H]([C@H](C)O)NC(=O)[C@H](CCCNC(=N)N)NC(=O)[C@H](CO)NC1=O) [Example 278: AIC+SR-(allo-T)-LPPIC+IPD-NH2] | 83 nM
[Sar]ICSRSLPPIC[aIle]PD-NH2 (disulfide 3-11; N-terminus assumed; SMILES CC[C@@H](C)[C@H](NC(=O)[C@@H]1CSSC[C@H](NC(=O)[C@@H](NC(=O)CNC)[C@@H](C)CC)C(=O)N[C@@H](CO)C(=O)N[C@@H](CCCNC(=N)N)C(=O)N[C@@H](CO)C(=O)N[C@@H](CC(C)C)C(=O)N2CCC[C@H]2C(=O)N2CCC[C@H]2C(=O)N[C@@H]([C@@H](C)CC)C(=O)N1)C(=O)N1CCC[C@H]1C(=O)N[C@@H](CC(=O)O)C(N)=O) [Example 277: ((N-Me)G)-IC+SRSLPPIC+(allo-I)-PD-NH2] | 190 nM
[Sar]ICSRSLPP[Chg]CIPD-NH2 (disulfide 3-11; N-terminus assumed; SMILES CC[C@H](C)[C@H](NC(=O)CNC)C(=O)N[C@H]1CSSC[C@@H](C(=O)N[C@H](C(=O)N2CCC[C@H]2C(=O)N[C@@H](CC(=O)O)C(N)=O)[C@@H](C)CC)NC(=O)[C@H](C2CCCCC2)NC(=O)[C@@H]2CCCN2C(=O)[C@@H]2CCCN2C(=O)[C@H](CC(C)C)NC(=O)[C@H](CO)NC(=O)[C@H](CCCNC(=N)N)NC(=O)[C@H](CO)NC1=O) [Example 282: ((N-Me)G)-IC+SRSLPP-(Chg)-C+IPD-NH2] | 470 nM
AICSRSLP[Oic][Chg]CIPD-NH2 (disulfide 3-11; N-terminus assumed; SMILES CC[C@H](C)[C@H](NC(=O)[C@H](C)N)C(=O)N[C@H]1CSSC[C@@H](C(=O)N[C@H](C(=O)N2CCC[C@H]2C(=O)N[C@@H](CC(=O)O)C(N)=O)[C@@H](C)CC)NC(=O)[C@H](C2CCCCC2)NC(=O)[C@@H]2C[C@@H]3CCCC[C@@H]3N2C(=O)[C@@H]2CCCN2C(=O)[C@H](CC(C)C)NC(=O)[C@H](CO)NC(=O)[C@H](CCCNC(=N)N)NC(=O)[C@H](CO)NC1=O) [Example 270: AIC+SRSLP-(Oic)-(Chg)-C+IPD-NH2] | 170 nM
GICSRSLPPICI[Aib]D-OH (disulfide 3-11; N-terminus assumed; SMILES CC[C@H](C)[C@H](NC(=O)CN)C(=O)N[C@H]1CSSC[C@@H](C(=O)N[C@H](C(=O)NC(C)(C)C(=O)N[C@@H](CC(=O)O)C(=O)O)[C@@H](C)CC)NC(=O)[C@H]([C@@H](C)CC)NC(=O)[C@@H]2CCCN2C(=O)[C@@H]2CCCN2C(=O)[C@H](CC(C)C)NC(=O)[C@H](CO)NC(=O)[C@H](CCCNC(=N)N)NC(=O)[C@H](CO)NC1=O) [Example 286: GIC+SRSLPPIC+I-(Aib)-D-OH] | 230 nM
G[NMeI]CSRSLPPICIPD-OH (disulfide 3-11; N-terminus assumed; SMILES CC[C@H](C)[C@@H]1NC(=O)[C@@H]2CCCN2C(=O)[C@@H]2CCCN2C(=O)[C@H](CC(C)C)NC(=O)[C@H](CO)NC(=O)[C@H](CCCNC(=N)N)NC(=O)[C@H](CO)NC(=O)[C@@H](NC(=O)[C@H]([C@@H](C)CC)N(C)C(=O)CN)CSSC[C@@H](C(=O)N[C@H](C(=O)N2CCC[C@H]2C(=O)N[C@@H](CC(=O)O)C(=O)O)[C@@H](C)CC)NC1=O) [Example 275: G-((N-Me)I)-C+SRSLPPIC+IPD-OH] | 150 nM
{Cyclopropylacetic acid}-ICSRS[tBuAla]PPI[NMeC]I-NH2 (disulfide 2-10; SMILES CC[C@H](C)[C@H](NC(=O)[C@@H]1CSSC[C@H](NC(=O)[C@@H](NC(=O)CC2CC2)[C@@H](C)CC)C(=O)N[C@@H](CO)C(=O)N[C@@H](CCCNC(=N)N)C(=O)N[C@@H](CO)C(=O)N[C@@H](CC(C)(C)C)C(=O)N2CCC[C@H]2C(=O)N2CCC[C@H]2C(=O)N[C@@H]([C@@H](C)CC)C(=O)N1C)C(N)=O) [Example 274: (Cyclopropylacetic acid)-IC+SRS-((tBu)A)-PPI-((N-Me)C)+I-NH2] | 89 nM
G[NMeI]CSRSLPPICIP[dD]-OH (disulfide 3-11; N-terminus assumed; SMILES CC[C@H](C)[C@@H]1NC(=O)[C@@H]2CCCN2C(=O)[C@@H]2CCCN2C(=O)[C@H](CC(C)C)NC(=O)[C@H](CO)NC(=O)[C@H](CCCNC(=N)N)NC(=O)[C@H](CO)NC(=O)[C@@H](NC(=O)[C@H]([C@@H](C)CC)N(C)C(=O)CN)CSSC[C@@H](C(=O)N[C@H](C(=O)N2CCC[C@H]2C(=O)N[C@H](CC(=O)O)C(=O)O)[C@@H](C)CC)NC1=O) [Example 276: G-((N-Me)I)-C+SRSLPPIC+IPd-OH] | 200 nM

Further lines, results first:

rat MASP1 IC50 | Binder
180 nM | [Sar]ICSRSLPPICI[αMeP]D-OH (disulfide 3-11; N-terminus assumed; SMILES CC[C@H](C)[C@H](NC(=O)CNC)C(=O)N[C@H]1CSSC[C@@H](C(=O)N[C@H](C(=O)N2CCC[C@@]2(C)C(=O)N[C@@H](CC(=O)O)C(=O)O)[C@@H](C)CC)NC(=O)[C@H]([C@@H](C)CC)NC(=O)[C@@H]2CCCN2C(=O)[C@@H]2CCCN2C(=O)[C@H](CC(C)C)NC(=O)[C@H](CO)NC(=O)[C@H](CCCNC(=N)N)NC(=O)[C@H](CO)NC1=O) [Example 289: ((N-Me)G)-IC+SRSLPP-IC+I-((2-Me)P)-D-OH]
220 nM | [Sar]ICSRSLPPICI[Abu]D-OH (disulfide 3-11; N-terminus assumed; SMILES CC[C@H](NC(=O)[C@@H](NC(=O)[C@@H]1CSSC[C@H](NC(=O)[C@@H](NC(=O)CNC)[C@@H](C)CC)C(=O)N[C@@H](CO)C(=O)N[C@@H](CCCNC(=N)N)C(=O)N[C@@H](CO)C(=O)N[C@@H](CC(C)C)C(=O)N2CCC[C@H]2C(=O)N2CCC[C@H]2C(=O)N[C@@H]([C@@H](C)CC)C(=O)N1)[C@@H](C)CC)C(=O)N[C@@H](CC(=O)O)C(=O)O) [Example 313: ((N-Me)G)-IC+SRSLPPIC+I-(Abu)-D-OH]
84 nM | [Orn]ICSRS[tBuAla]PPI[NMeC]IPD-OH (disulfide 3-11; N-terminus assumed; SMILES CC[C@H](C)[C@H](NC(=O)[C@@H](N)CCCN)C(=O)N[C@H]1CSSC[C@@H](C(=O)N[C@H](C(=O)N2CCC[C@H]2C(=O)N[C@@H](CC(=O)O)C(=O)O)[C@@H](C)CC)N(C)C(=O)[C@H]([C@@H](C)CC)NC(=O)[C@@H]2CCCN2C(=O)[C@@H]2CCCN2C(=O)[C@H](CC(C)(C)C)NC(=O)[C@H](CO)NC(=O)[C@H](CCCNC(=N)N)NC(=O)[C@H](CO)NC1=O) [Example 479: (Orn)-IC+SRS-((tBu)A)-PPI-((N-Me)C)+IPD-OH]
350 nM | GICSRSLPPICI[Hyp]D-OH (disulfide 3-11; N-terminus assumed; SMILES CC[C@H](C)[C@H](NC(=O)CN)C(=O)N[C@H]1CSSC[C@@H](C(=O)N[C@H](C(=O)N2C[C@H](O)C[C@H]2C(=O)N[C@@H](CC(=O)O)C(=O)O)[C@@H](C)CC)NC(=O)[C@H]([C@@H](C)CC)NC(=O)[C@@H]2CCCN2C(=O)[C@@H]2CCCN2C(=O)[C@H](CC(C)C)NC(=O)[C@H](CO)NC(=O)[C@H](CCCNC(=N)N)NC(=O)[C@H](CO)NC1=O) [Example 348: GIC+SRSLPPIC+I-(Hyp)-D-OH]
120 nM | [Sar]ICSRSLPPICI[Oic]D-OH (disulfide 3-11; N-terminus assumed; SMILES CC[C@H](C)[C@H](NC(=O)CNC)C(=O)N[C@H]1CSSC[C@@H](C(=O)N[C@H](C(=O)N2[C@H](C(=O)N[C@@H](CC(=O)O)C(=O)O)C[C@@H]3CCCC[C@@H]32)[C@@H](C)CC)NC(=O)[C@H]([C@@H](C)CC)NC(=O)[C@@H]2CCCN2C(=O)[C@@H]2CCCN2C(=O)[C@H](CC(C)C)NC(=O)[C@H](CO)NC(=O)[C@H](CCCNC(=N)N)NC(=O)[C@H](CO)NC1=O) [Example 367: ((N-Me)G)-IC+SRSLPPIC+I-(Oic)-D-OH]
